B1: Lysine-specific demethylase 2B, residues 656 to 722; numbered along this chain, Q8NHM5 (parent)
chain: LPHTAVCLVCGEAGKEDTVEEEEGKFNLMLMECSICNEIIHPGCLKIKESEGVVNDELPNCWECPKC

Variants of: B1
Test: abundance fitness (aPCA) (normalised: wild type 0, dead -1); higher = more abundant; growth selection in yeast, the domain comes from the species named
Conditions: Homo sapiens

Abundance fitness, by site and new letter:
L30: N -0.152, P -0.435, Q -0.337, R -0.196, S -0.452, T -0.212, W -0.309
M31: A -0.18, C -0.219, F -0.272, G -0.485, H -0.25, I -0.238, K -0.093, L -0.053, P -0.847, Q -0.662, R -0.141, S -0.446, T -0.405, V -0.276, W -0.229, Y -0.317
E32: A -0.222, C 0.088, D -0.324, F -0.205, G -0.063, H 0.103, I -0.072, K 0.156, L 0.005, M 0.142, P -0.53, Q -0.17, R 0.201, S 0.044, T 0.02, V -0.287, W -0.247, Y -0.668
C33: A -0.912, D -0.852, E -0.619, G -0.629, K -0.6, L -0.765, M -0.642, N -0.481, P -0.729, Q -0.581, R -0.593, S -0.716, T -0.753, V -1.24, W -1.02, Y -0.621
S34: A -0.273, C -0.053, D -0.153, E -0.469, G -0.106, H -0.03, I -0.058, K -0.021, L -0.36, P -0.456, Q 0.027, R -0.229, T 0.082, V -0.078, W -0.545
I35: C -0.119, D -0.323, E -0.399, G -0.14, K -0.057, L 0.016, M 0.023, N -0.295, P -1.07, Q -0.149, R -0.022, S -0.364, T 0.147, V 0.037, W -0.643, Y -0.548
C36: A -0.78, D -0.549, E -0.736, F -1.21, G -0.794, H -1.18, I -0.477, L -0.643, M -0.619, N -0.707, R -0.72, S -0.994, T -0.961, V -0.921, W -1.38
N37: A 0.094, C 0.34, D -0.026, E 0.02, F -0.233, G 0.092, H 0.081, K 0.095, M -0.062, Q 0.183, R 0.111, S 0.057, T -0.369, V -1.3, W -0.267, Y 0.137
E38: A -0.356, C -0.291, D -0.294, F -0.69, G -0.286, H -0.566, I -0.085, K -0.206, M 0.066, N -0.402, P -0.723, Q -0.098, R 0.104, S -0.06, T -0.57, V -0.13, W -0.163
I39: A -0.029, C -0.216, E -0.256, G -0.141, H 0.245, K -0.021, L -0.125, M 0.119, N 0.056, P -0.055, Q 0.257, R 0.138, S -0.129, T -0.053, V 0.013, W -0.157, Y 0.076
I40: A 0.008, C -0.06, E -0.599, F -0.579, G -0.229, H 0.1, K -0.368, L -0.154, N 0.171, P -0.72, Q -0.192, R -0.2, S 0.096, T 0.126, V 0.215, W -0.473, Y -0.257
H41: A -0.931, C -0.767, E -0.997, G -0.903, K -0.278, L -0.925, Q -0.952, R -0.943, S -1.03, T -0.784, V -1.21, W -0.913, Y -0.912
P42: A -0.34, C -0.355, D -0.644, E -0.537, F -0.272, G -0.302, H 0.019, K -0.285, L -0.317, M -0.52, Q -0.189, R -0.134, T -0.568, V -0.423, W -0.32, Y 0.122
G43: A 0.085, C -0.395, D -0.064, F -0.558, H -0.433, K -0.219, L -0.536, M 0.113, N -0.195, P -0.526, Q -0.383, R -0.173, S -0.364, T -0.375, V -0.302, W -0.52, Y -0.02
C44: A -0.779, G -0.764, L -0.956, M -0.735, N -0.815, P -0.722, Q -0.79, R -0.709, S -0.843, T -0.982, V -0.906, W -0.8, Y -0.897
L45: A -0.224, D -0.483, E -0.547, F -0.286, G -0.114, H -0.188, I -0.434, K -0.402, M 0.032, P -0.515, Q 0.069, R -0.002, S 0.081, T -0.085, V -0.092, W -0.493
K46: A -0.01, D 0.224, E 0.206, G 0.205, H -0.532, I -0.311, L 0.007, P 0.077, Q 0.195, R 0.016, S 0.206, T 0.211, V -0.058, W -0.148, Y 0.042
I47: A -0.014, C -0.168, D -0.261, E 0.038, F -0.047, G 0.011, H -0.242, K -0.17, L -0.133, M 0.16, N -0.307, Q -0.167, R -0.207, S -0.002, T 0.08, V 0.006, W -0.09, Y -0.007
K48: C -0.179, E 0.152, F -0.078, G -0.056, M 0.157, N 0.222, P -0.159, Q 0.108, R -0.168, S -0.155, V -0.261, W -0.119, Y 0.011
E49: A 0.104, C -0.039, D -0.198, G 0.008, I -0.244, K -0.123, L -0.077, M -0.005, N 0.262, P 0.024, Q -0.079, R -0.103, S -0.061, T 0.045, W -0.235, Y -0.187
S50: C 0.078, D 0.085, E 0.034, F 0.039, G 0.169, H -0.208, I -0.036, K -0.025, M -0.155, P 0.087, Q -0.111, R -0.128, V 0.039, W -0.156, Y 0.312
E51: A -0.044, C 0.056, G -0.197, H 0.097, K -0.027, L -0.385, M -0.19, P -0.328, Q -0.239, R -0.001, S -0.131, T 0.072

— the Human Domainome abundance scans (Beltran et al. 2025)
